B5: Vab2 with C-terminal TAP tag (natural protein)
chain: MVADLTKGILKWKSRIEFDAVGSSSYYEELKGLPPLASHKKLTQAAIFNSTKYELLQVKKDILSIYEVVSRDIDEERNQMQQIELQLKKSLKKVEHSYKNVLKQRASTNCINGNDRLLANAEKKIGSLNEELACVNDIVSDIVNNLTALNANLPKKAQLLKDDSINVAHYPLLFDFLHKSCPKSIIATSEASIHENASPSPLLEHDELPAESINSFYGENELQSDSLAPLQTHDDNISSCKKILPPKFNTTSGPSIETNFENISADGLTYTKCSLKNSISLT

Experiment [1] addresses B5. Kind of experiment: SEC. Background: Size exclusion chromatography separates by hydrodynamic size, large species first.
Experiment [2] deals with B5. Kind of experiment: affinity purification with mass spectrometry.
The target of experiment [3] is Snn1 (BLOC-1 subunit), overexpressed (yeast, UniProt P48232 1-102). Kind of experiment: affinity purification with mass spectrometry.

Data on 5 molecules can be found in article PMC3613695 (The Journal of Cell Biology, 2013).

B1: Kxd1 (BLOC-1 subunit), overexpressed (natural protein, yeast, UniProt P53158 1-218, looked up)
chain: MVTGISEENDDEETFSAVHSSTPSINSQSYAIPITEEMSSSFHDSISTTSNSSGSFDSDGSNVSDVVEQNEMDNESNVDEDLFLDNDIPQSSNLLPTDAQDPGPIFDVSRYIFDSLKQSIDSADFSEALSLQTKTSAVINSKSLELKQYIDEMKSRLTQLQEKFENGEATSKKIKRDLETSRKNIDYLNAALRVDFPIEFNQAREKILERRLNEDHDC
For B1, in experiment [1], the binding result is recorded as “binds”.

B2: Cnl1 (BLOC-1 subunit), overexpressed (natural protein, yeast, UniProt Q06333 1-122, looked up)
chain: MQDNSSHSRESASAGDDPLGIDKLTVDYDYLLYKMRDYVQSIQLDTTELCKKQNEVMVNGIIENTIDKNIAKFKELLEKCDTLENHYEMLNQLAIITDTFKERIAEAVNNYNSLKKGASKSK
As for B2, the binding result in experiment [2] is given as “binds”.

B3: Bls1 (BLOC-1 subunit), overexpressed (natural protein, yeast, UniProt Q06071 1-122, looked up)
chain: MFLTFSMCVNWIIVKMPNRSEELDRLLDKIINSPHRTEASKTLQEIENNQSYILNVQLKKLLRLHDDSFKNKCVSPINYMLEKYTPYMGHTEALQKEAELVDRDLRILEMTYQLIEKNRNSK
As to B3, the binding result in experiment [2] is listed as “binds”.

B4: Bli1 (BLOC-1 subunit), overexpressed (natural protein, yeast, UniProt P35727 1-113, looked up)
chain: MGEQNKLYYDVEKLVNSLQESFDLDCAQSVSLFTSKSRSNEAWLEELENKFKLKDDVELDDVENLRAEIDMKLNMLEDKVSYYERLYKELEEFQNEIKIKTVVNNRRQSRTPK
For the molecule B4, the binding result in experiment [2] is “binds”.

Turning to B5, in experiment [3], the binding result is given as “binds”.
